Patent publication CN117651715A (UNIV OXFORD INNOVATION LTD, dated 2024)
Positions count from the first letter of the chain named.

B1: 111(VR12113) (antibody, from another filing, V domains shown)
VH: QSVEESGGRLVTPGTPLTLTCTASGFSLSTYAMSWVRQAPGKGLEWIGIISSSGSTYYASWAKGRFTISKTSTTVDLKITSPTTEDTATYFCARETWYWLDLWGQGTLVTVSS
VL: AVEMTQTPASVSAAVGGTVTINCQASEDIYSNLAWYQQKPGQPPKLLIYGASTLASGVPSRFKGSGSGTEYTLTISGVQCDDAATYYCQCAYDSSSYGTPFGGGTEVVVK
B2: 77A(VR11851) (antibody, V domains shown)
VH: QSVEESGGRLVTPGTPLTLTCTVSGFSLSSYAMSWVRQAPGKGLEWIGIISSSGTTYYASWAKGRFTISKTSTTVDLKITSPTTEDTATYFCARVDYYSSGWGGLWGPGTLVTVSS
VL: B1 VL with V11M, N22K, A91T, S94T, T99N, P100T, V107M, K110E
B3: 116(VR12117) (antibody, from another filing, V domains shown)
VH: QSVEESGGRLVTPGTPLTLTCTVSGFSLSNYAMSWVRQAPGKGLEWIGIIYTTGFTYYASWVKGRFTISKTSTTVDLKITSPTTEDTATYFCARGLATYVSPPTRLDLWGQGTLVTVSS
VL: AQVLTQTPSPVSAAVGGTVTINCQASQSIYNSKNLAWYQQKPGQPPKLLIYSASTLASGVPSRFKGSGSGTQFTLTISDLECDDAATYYCQGEFSCSSVDCATFGGGTEVVVK
B4: 110(VR12112) (antibody, from another filing, V domains shown)
VH: QSVEESGGRLVTPGTPLTLTCTVSGFSLSSYAMIWVRQAPGKGLEWIGIINSSDNTHYATWAKGRFTISKTSTTVDLKITSPTTEDTATYFCARDPYDYGYGWYFDLWGPGTLVTVSS
VL: AQVLTQTPSPVSAAVGGTVTINCQASQSVFNNKNLAWYQQKPGQPPKLLIYKASTLASGVSSRFKGSGSGTQFALTISGVQCDDAATYYCQGEFSCSSTDCVTFGGGTEVVVK
B5: 16(VR11834) (antibody, from another filing, V domains shown)
VH: EVQLVESGGGLVKPGGSLKLSCAASGFTFSNYAMSWVRQTPEKRLEWVAAINSNGGSAYYPDTVKDRFTISRDNAKNTLYLQMSSLRSEDTALYYCARRFYYDYGWFAYWGQGTLVTVSS
VL: DIVLTQSPASLSASVGETVTITCRASENIDSYLAWYQQKQGKSPQLLVYAATLLADGVPSRFSGSGSGTQYSLKINSLQSEDVARYYCQHYYSSPWTFGGGTKLEIK

Experiments:
[1] = target: 人类CD1a池B蛋白 (human CD1a pool B protein, recombinant) (human) (UniProt P06126); experiment: SPR (Biacore T200), antibody captured, human CD1a titrated, 1:1 model
[2] = target: T1, 人类CD1a池B蛋白 (human CD1a pool B protein, recombinant) (human, UniProt P06126 17-300, limits assumed); experiment: as above
T1 construct: Recombinant protein used in ELISA, Biacore and on beads; also called 人类CD1a蛋白; CD1a包被珠 (on beads)

[3] = target: T1, 人类CD1a池B蛋白 (human CD1a pool B protein, …); experiment: SPR (Biacore T200), antibody captured on anti-species F(ab')2, human CD1a titrated 0-50 nM, 1:1 model
[4] = target: 人类CD1a池B蛋白 (human CD1a pool B protein, recombinant) (human) (UniProt P06126); experiment: SPR (Biacore T200), antibody captured, human CD1a titrated, heterogeneous ligand model

T1 sequence (P06126 17-300 limits assumed): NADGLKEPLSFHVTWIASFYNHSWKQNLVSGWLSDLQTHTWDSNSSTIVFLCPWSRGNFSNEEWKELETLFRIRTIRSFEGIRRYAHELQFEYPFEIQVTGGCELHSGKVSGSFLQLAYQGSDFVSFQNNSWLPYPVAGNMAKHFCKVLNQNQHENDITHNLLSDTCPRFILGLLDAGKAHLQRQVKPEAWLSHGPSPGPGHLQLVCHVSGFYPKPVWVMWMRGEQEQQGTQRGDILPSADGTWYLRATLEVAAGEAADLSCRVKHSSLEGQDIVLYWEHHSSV

| Binder | Kd [1] | koff [1] | kon [1] | also measured |
| --- | --- | --- | --- | --- |
| B1 | 0.0312 nM | 1.47e-08 s⁻¹ | 321000 M⁻¹ s⁻¹ | – |
| B2 | – | – | – | Kd [2]: 0.24 nM; koff [2]: 0.000113 s⁻¹; kon [3]: 469000 M⁻¹ s⁻¹ |
| B3 | 2.89 nM | 0.0014 s⁻¹ | 483000 M⁻¹ s⁻¹ | – |
| B4 | 1.97 nM | 0.000874 s⁻¹ | 443000 M⁻¹ s⁻¹ | – |
| B5 | – | – | – | Kd [4]: 0.392 nM; ka 2 [4]: 514000 M⁻¹ s⁻¹; kd 2 [4]: 0.00658 s⁻¹; koff [4]: 0.000729 s⁻¹; kon [4]: 1.86e+06 M⁻¹ s⁻¹ |
